Source: article PMC11558679, “Artificial Zymogen Based on Protein–Polymer Hybrids” (Biomacromolecules, 2024)
“And” between values parts separate entries of the source, which are not always exact repeats. Equal entries are not always repeated.

B1: TR-pCBMA hybrid: control without inhibitory domain; poly(CBMA) exclusively grafted from TR (conjugate, UniProt P00760 24-246, looked up)
Serine protease 1: IVGGYTCGANTVPYQVSLNSGYHFCGGSLINSQWVVSAAHCYKSGIQVRLGEDNINVVEGNEQFISASKSIVHPSYNSNTLNNDIMLIKLKSAASLNSRVASISLPTSCASAGTQCLISGWGNTKSSGTSYPDVLKCLKAPILSDSSCKSAYPGQITSNMFCAGYLEGGKDSCQGDSGGPVVCSGKLQGIVSWGSGCAQKNKPGVYTKVCNYVSWIKQTIASN
modifications: poly(CBMA) grafted

Columns and labels:
[1] = Biocatalytic assay (Michaelis–Menten) of CT and CT hybrids with suc-Ala-Ala-Pro-Phe-pNA; assay type: biochemical, bovine
Experimental: N-Succinyl-L-Ala-L-Ala-L-Pro-L-Phe-p-nitroanilide was used as a substrate for enzyme bioactivity assays. In a cuvette, 0.1 M sodium phosphate buffer (910–990 μL, pH 8.0), substrate (0–80 μL, 6 mg/mL in DMSO), and enzyme (10 μL, 0.1 mg CT/mL in 0.1 M sodium phosphate buffer (pH 8.0), 40 nM as final CT concentration) were mixed. The rate of hydrolysis was determined by recording the increase in absorbance at 412 nm for the first 45 s after mixing. KM and kcat values were calculated using the Enzfitter software when plotting substrate concentration versus initial hydrolysis velocity.

[2] = Biocatalytic assay (Michaelis–Menten) of TR and TR hybrids with Tos-Gly-Pro-Arg-pNA; assay type: biochemical, bovine; settings: [TR]0 = 8.4 nM, [Tos-GPR-pNA]0 = 0–302 μM, 100 mM Tris–HCl and 20 mM CaCl2 (pH 8.0), 37 °C, absorbance 412 nm, first 45 s, Enzfitter
Experimental: N-Tosyl-L-Gly-L-Pro-L-Arg-p-nitroanilide was used as a substrate for enzyme bioactivity assays. In a cuvette, 0.1 M Tris HCl and 20 mM calcium chloride buffer (890–990 μL, pH 8.0), substrate (0–100 μL, 2 mg/mL in DMSO), and enzyme (10 μL, 0.02 mg TR/mL in 100 mM Tris–HCl and 20 mM calcium chloride (pH 8.0), 8.4 nM as final concentration) were mixed for enzyme bioactivity assays. The rate of hydrolysis was determined by recording the increase in absorbance at 412 nm for the first 45 s after mixing. KM and kcat values were calculated using Enzfitter software when plotting substrate concentration versus initial hydrolysis velocity. […]
Table S5. Char acterization and enzymatic activity of TR-pCBMA and inhibited pro- T R pol ymer h ybr i ds with different linkers between the inhibitory and cleavable peptide moieties.
SEC-M ALLS anal ysi s Michaelis-Menten parameters d
Mnb Mwb Đb DPc KM kcat kcat/KM samples kg mol-1 kg mol-1 (CBM A/inhibitor) (µM) (s-1) (µM-1 s-1) […]
SEC -MALLS and 1H NMR spectra. d conditions: [TR]0 = 8.4 nM, [Tos-GPR-pNA]0 = 0 - 302 µM, buffer 100 mM Tris-HCl and 20 mM CaCl2 (pH 8.0) at 37 °C. […]

[3] = [CT]0 = 40 nM, [suc-AAPFpNA]0 = 0–960 μM, 100 mM sodium phosphate (pH 8.0), 37 °C, absorbance 412 nm, first 45 s, Enzfitter

| Km ([1]; rounded value in comparison with Ki, read-out: KM of the peptide substrate for native CT) [µM] | Molecule | kcat [1, 3] [s^–1] | kcat/KM [1, 3] | Km ([1]; [CT]0 = 40 nM, [suc-AAPFpNA]0 = 0–960 μM, 100 mM sodium phosphate (pH 8.0), 37 °C, absorbance 412 nm, first 45 s, Enzfitter, read-out: KM) [µM] | kcat [2] [s^–1] | kcat/KM [2] [μM^–1 s^–1] | kcat/KM ([2]; listed as TR-pCBMA) | Km ([2]; read-out: KM) [µM] |
| --- | --- | --- | --- | --- | --- | --- | --- | --- |
| – | α-Chymotrypsin from bovine pancreas, Type II [native CT] | 43.6 | 0.484 μM^–1 s^–1 and 0.484 ± 0.069 μM^–1 s^–1 | 90.1 ± 12.5 | – | – | – | – |
| 90 | N-succinyl-L-Ala-L-Ala-L-Pro-L-Phe-p-nitroanilide [suc-Ala-Ala-Pro-Phe-pNA, reference compound] | – | – | – | – | – | – | – |
| – | B1 | – | 0.292 μM^–1 s^–1 | – | 45.7 ± 1.1 | 2.43 ± 0.36 | 2.43 ± 0.36 μM^–1 s^–1 and 2.43 μM^–1 s^–1 | 18.8 ± 2.8 |
